Data reported in publication doi:10.1101/2020.11.24.393629 (bioRxiv, 2020).

What was measured:
[1] = target: SARS-CoV RBD (SARS-CoV, GenBank NC_004718.3, UniProt P59594); assay: BLI
[2] = target: T1, Recombinant RBD protein of SARS-CoV-2 with His tag (SARS-CoV-2, UniProt P0DTC2); assay: flow cytometry on cells
[3] = target: SARS-CoV-2 S on 293T cells expressing SARS-CoV-2 S (SARS-CoV-2-S cells) (SARS-CoV-2, UniProt P0DTC2); assay: flow cytometry on cells
[4] = target: T1, Recombinant RBD protein of SARS-CoV-2 …; assay: ELISA

B1: HB27, humanized anti-SARS-CoV-2 monoclonal antibody (IgG) (antibody, V domains shown)
VH: VKLVESGGGLVKPGGSLRLSCAASGFTFTNYGMSWVRQAPGKRLEWVAEISSGGSYTYYPDTVTGRFTISRDNAKNTLYLQMNSLRAEDTAVYYCARFRYGGGGTVDYWGQGTLVTVSS
VL: IVLTQSPTLSLSPGERATLSCRASESVDNYGISFMNWFQQKPGQAPRLLIYAASNQGSGIPSRFSGSGSGTDFSLTISSLEPEDFAVYFCQQSKEVPRIFGQGTKVEIL
binding result [1]: no binding | EC50 [2]: 5 to 50 nM | EC50 [3]: 5 to 50 nM | EC50 [4]: 0.5 nM
